Laboratory results published in patent US20240209099A1 (SUZHOU TRANSCENTA THERAPEUTICS, published 2024).

T1: Recombinant Rhesus macaque VEGFR2/KDR Protein, His tag (rhesus macaque)
T1 construct: Expressed in HEK293, bought from ACRO Biosystems; also called rhesus VEGFR2-his; rhesus VEGFR2
T1 chain: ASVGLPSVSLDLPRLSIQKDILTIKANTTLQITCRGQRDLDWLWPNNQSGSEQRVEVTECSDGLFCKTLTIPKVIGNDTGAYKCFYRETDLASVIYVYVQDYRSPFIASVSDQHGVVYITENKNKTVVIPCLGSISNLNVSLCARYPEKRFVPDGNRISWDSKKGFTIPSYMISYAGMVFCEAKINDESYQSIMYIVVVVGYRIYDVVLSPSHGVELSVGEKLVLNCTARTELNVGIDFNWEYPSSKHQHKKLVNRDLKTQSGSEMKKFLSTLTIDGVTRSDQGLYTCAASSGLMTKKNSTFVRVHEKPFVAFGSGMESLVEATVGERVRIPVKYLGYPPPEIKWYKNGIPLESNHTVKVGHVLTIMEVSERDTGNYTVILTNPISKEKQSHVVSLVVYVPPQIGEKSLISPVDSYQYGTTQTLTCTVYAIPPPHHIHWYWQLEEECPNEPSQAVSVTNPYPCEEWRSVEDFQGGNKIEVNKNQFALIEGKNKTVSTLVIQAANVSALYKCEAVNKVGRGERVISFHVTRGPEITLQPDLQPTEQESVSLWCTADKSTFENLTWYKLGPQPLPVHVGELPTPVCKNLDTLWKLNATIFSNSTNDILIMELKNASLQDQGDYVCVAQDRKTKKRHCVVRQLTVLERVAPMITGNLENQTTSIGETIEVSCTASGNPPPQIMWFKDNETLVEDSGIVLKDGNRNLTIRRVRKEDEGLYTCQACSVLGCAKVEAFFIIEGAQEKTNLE

B1: 042C (chimeric 042) (antibody, V domains shown)
VH: EVQLVESGGDLVKPGGSLKLSCTASGFSFSIYGMSWVRQTPDKRLEWVASISVGGSYTYYADSVEGRFTISRENAKNTLYLQMNSLKSEDTALYYCARELDGNYDYWGQGTSLTVSS
VL: DIVITQNELSNPVTFGESVSISCRSSKSLLYKDGKTYLNWFLQRPGQSPQLLIYLMSTRASGVSDRFSGSGSGTDFTLEISRVKAEDVGVYYCQQLVEYPFTFGSGTKLEIK
notes: Chimeric antibody with human constant regions (vector pCP-Hck/Hcg1)
B2: 054C (chimeric 054) (antibody, V domains shown)
VH: EVQLVESGGDLVKPGGSLKLSCAASGFTFSMYGMSWVRQTPDKRLEWVASISIGGSYTYYADSVEGRFIISRENAKNTLFLQMNSLKSEDTALYYCARELDGNYDYWGQGTTLTVSS
VL: HIMITQDELSNPVTFGESVSISCRSSKSLLYKDGKTYLNWFLQRPGQSPQLLIYLMSTRASGVSDRFSGSGSGTDFTLEISRVKAEDVGIYYCQQLVEYPFTFGSGTKLEIK
notes: as for B1
B3: 048C (chimeric 048) (antibody, V domains shown)
VH: EVQLVESGGDLVKPGGSLKLSCAASGFTFSMYGMSWVRQTPDKRLEWVASISIGGSYTYYADSVEGRFTISRENAKNTLFLQMNSLKSEDTALYYCAREMDGNYDYWGHGTTLTVSS
VL: DVMITQDELSNPVTFGESVSISCRSSKSLLYKDGKTYLNWFLQRPGQSPQLLIYLMSTRASGVSDRFSGSGSGTDFTLEISRVKAEDVGIYYCQQLVEYPFTFGSGTKLEIK
notes: as for B1
B4: 002C (chimeric 002) (antibody, V domains shown)
VH: QVQLQQSGPELVKPGASVKISCKASGYAFSSSWMNWVKQRPGEGLEWIGRIFPGDGDTYYNGKFQVKATLTADKSSSTAYMQLSSLTSEDSAVYFCAIFLDTSGRYVDYWGQGTTLTISS
VL: DIVMTQSHKFMSTSVGDRVSITCKASQDVNTAVAWYQQKPGQSPKLLIYSASYRYIGVPDRFTGSGSGTDFTFTISSVQSEDLTVYYCQQHYRAPLTFGSGTKLELK
notes: Mouse variable regions cloned into expression vector pCP-Hck/Hcg1 (human constant regions; detected with anti-human Fc)

Experiments:
[1] = biological target: T2, Recombinant Human VEGFR2/KDR Protein, His tag (hVEGFR2-his) (human, UniProt P35968 20-764); assay: competition ELISA: VEGF-A coated (0.25 ug/ml), antibody mixed with VEGFR2, detection with mouse anti-VEGFR2 serum and anti-mouse Fc-HRP; blocked ligand VEGF-A
T2 construct: Expressed in HEK293, bought from ACRO Biosystems; also called human VEGFR2-his; Human VEGFR2/KDR-His
Procedure: For this assay, 0.25 μg/ml VEGF-A was coated on ELISA plate before a mixture of chimeric antibodies and VEGFR2 were added. To detect free VEGF-A (not bind to VEGFR2), 1:1000 diluted mouse serum (mouse previous immunized with human VEGFR2) were added and HRP conjugated goat anti-mouse Fc antibody was used as secondary antibody.

[2] = biological target: T3, human VEGFR2 on HUVEC cells (human, UniProt P35968 20-1356); assay: flow cytometry on HUVEC cells, percent shifted cells (Shift %), anti-human IgG-PE
T3 construct: also called hVEGFR2 on HUVEC

[3] = biological target: T2, Recombinant Human VEGFR2/KDR Protein, …; assay: ELISA, hVEGFR2-his coated (0.5 ug/ml), anti-human Fc-HRP
Procedure: (§1) Same protocol of Example 2 antibody screening by ELISA assay. Briefly, 0.5 μg/ml hVEGFR2-his was coated and serially diluted purified antibodies would bind to coated antigen. Using HRP conjugated goat anti-mouse Fc antibody could detect binding signals of each antibody.
(§2) Same protocol of Example 4 except using HRP conjugated goat anti-human Fc antibody as secondary antibody. Binding to hVEGFR2-his and rhesus VEGFR2-his (Acrobiosystems, Cat #VE2-C52H3) were also analyzed head-to-head.

[4] = biological target: T1, Recombinant Rhesus macaque VEGFR2/KDR …; assay: ELISA, rhesus VEGFR2-his coated, anti-human Fc-HRP
Procedure: as §1, §2

[5] = biological target: T2, Recombinant Human VEGFR2/KDR Protein, …; assay: SPR (Biacore), antibody captured by anti-Fc, antigen 2.5-80 nM
Procedure: A CM5 sensor chip was activated in each flow cell by 7-min injection (10 μl/min) of freshly prepared 1:1 50 mM N-hydroxysuccinimide (NHS): 200 mM 1-ethyl-3-(3-dimethylaminopropyl)-carbodiimide (EDC). Then anti-human Fc antibody (GE Healthcare) in a concentration of 10 μg/ml in 10 mM sodium acetate buffer PH 5.0 was injected onto the activated chip at 10 μl/min (HBS-EP running buffer: 10 mM HEPES, 150 mM NaCl, 3.4 mM EDTA, 0.005% surfactant P20, pH 7.4). The remaining active coupling sites were blocked by 7 min injection of 1M ethanolamine at 10 μl/min. The immobilization level of each flow cell is ˜9000RU. Antibodies were captured in FC2 by anti-human Fc IgG or anti-mouse Fc (GE Healthcare) to 200˜300RU. FC1 was used as the reference cell. Antigen was injected at varying concentrations (2.5 nM, 5 nM, 10 nM, 20 nM, 40 nM and 80 nM) after capture of antibody. The association time for antibody binding antigen is 180s. Surface Regeneration condition is 120s at 10 μl/min in Gly pH1.5. The signals with captured antibody subtracted from those without captured antibody were calculated with Biacore X100 evaluation software ver. 2.0 (Biacore).

[6] = biological target: T2, Recombinant Human VEGFR2/KDR Protein, …; assay: ELISA, hVEGFR2-his coated, anti-human Fc-HRP
Procedure: as §2
Same protocol of Example 9.

Row | Binder | IC50 [1] [µg/mL] | EC50 [2] [µg/mL] | EC50 [3] [µg/mL] | EC50 [4] [µg/mL] | Kd [5] [nM] | koff [5] [s⁻¹] | kon [5] [M⁻¹ s⁻¹] | EC50 [6] [µg/mL]
1 | B1 | 0.148 | 0.157 | 0.015 | 0.0299 |  |  |  | 
2 | B2 | 0.1 | 0.0875 | 0.0189 | 0.0168 | 2.45 | 0.000113 | 46000 | 0.0186
3 | B3 | 0.09 |  | 0.0053 | 0.0101 |  |  |  | 0.00574
4 | B4 | 2.11 | 0.0823 | 0.0308 | 0.0209 |  |  |  | 
